Results as given in patent US20230287598A1 (TAURUS BIOSCIENCES, published 2023).
Substitutions are numbered along the chain they refer to. Numbers in names are those of the source. Like-named read-outs stand apart in the source and are kept apart here.

Tests used:
Kv1.3 = Kv1.3 (human (T-cells from human blood donors), UniProt P22001 1-575); assay: cell-based or functional assay
CXCR1 [1] = target: T1, CXCR1 (UniProt P25024 1-350, limits assumed); assay: cell-based or functional assay
T1 sequence (looked up): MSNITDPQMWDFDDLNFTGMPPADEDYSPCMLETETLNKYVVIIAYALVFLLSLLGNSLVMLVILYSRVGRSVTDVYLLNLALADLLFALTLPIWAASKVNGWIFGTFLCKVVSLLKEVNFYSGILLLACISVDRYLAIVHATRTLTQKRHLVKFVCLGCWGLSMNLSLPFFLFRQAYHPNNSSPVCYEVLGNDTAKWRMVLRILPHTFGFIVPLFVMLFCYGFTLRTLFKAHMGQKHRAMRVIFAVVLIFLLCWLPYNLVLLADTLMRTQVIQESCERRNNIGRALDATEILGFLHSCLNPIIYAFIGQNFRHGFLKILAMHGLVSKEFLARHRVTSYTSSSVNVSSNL

CXCR1 [2] = target: T2, CXCR1 (UniProt P25024 1-350, limits assumed); assay: flow cytometry, supernatant at 5 nM IgG
T2 construct: whole, on cells; DiscoveRx PathHunter cell line; any reporter tag on the receptor is not described; also called CXCR1 receptor; CXCR1-U2OS
T2 sequence (looked up): T1 sequence (looked up)

CXCR1 [3] = target: T2, CXCR1; assay: cell-based or functional assay; remark: listed apart in the source
CXCR1 [4] = target: T2, CXCR1; assay: flow cytometry, supernatant at 5 nM IgG; remark: listed apart in the source
CXCR1 [5] = target: T2, CXCR1; assay: flow cytometry, CXCR1-U2OS / parental U2OS
CXCR1 [6] = target: T2, CXCR1; assay: flow cytometry, median fluorescence CXCR1-U2OS / parental U2OS
CXCR1 [7] = target: T2, CXCR1; assay: flow cytometry on CXCR1-U2OS cells (parental U2OS: 5)

Chain of Kv1.3 (P22001 whole entry): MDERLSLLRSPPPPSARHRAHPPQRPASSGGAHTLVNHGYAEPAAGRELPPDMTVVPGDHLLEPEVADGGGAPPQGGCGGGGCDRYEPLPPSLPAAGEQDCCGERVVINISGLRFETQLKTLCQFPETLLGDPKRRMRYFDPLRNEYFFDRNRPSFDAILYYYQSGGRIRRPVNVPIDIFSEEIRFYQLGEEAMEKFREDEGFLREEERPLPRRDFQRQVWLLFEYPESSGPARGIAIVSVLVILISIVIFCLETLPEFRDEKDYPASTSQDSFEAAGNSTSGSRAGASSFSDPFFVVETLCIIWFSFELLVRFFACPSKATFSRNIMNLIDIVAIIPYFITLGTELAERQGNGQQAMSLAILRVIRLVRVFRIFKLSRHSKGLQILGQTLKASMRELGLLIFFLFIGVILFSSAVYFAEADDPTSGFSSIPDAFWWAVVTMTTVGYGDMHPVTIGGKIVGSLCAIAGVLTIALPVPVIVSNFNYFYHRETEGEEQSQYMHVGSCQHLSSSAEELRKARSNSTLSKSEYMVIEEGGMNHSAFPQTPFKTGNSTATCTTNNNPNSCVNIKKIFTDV

B1: BLV1H12 GLLV 3xG4S ShK (antibody)
VH: QVQLRESGPSLVKPSQTLSLTCTASGFSLSDKAVGWVRQAPGKALEWLGSIDTGGNTGYNPGLKSRLSITKDNSKSQVSLSVSSVTTEDSATYYCTSVHQETKKYQSGGGGSGGGGSGGGGSGGRSCIDTIPKSRCTAFQCKHSMKYRLSFCRKTCGTCGGGGSGGGGSGGGGSSYTYNYEWHVDVWGQGLLVTVSSAS
light: not shown
- EC50 (nM), inhibition of T-cell activation, IL-2 secretion, Donor 1 (Kv1.3): 0.1 nM
- EC50 (nM), inhibition of T-cell activation, IL-2 secretion, Donor 2 (Kv1.3): 0.03 nM
- EC50 (nM), inhibition of T-cell activation, TNFα secretion, Donor 1 (Kv1.3): 6.5 nM
- EC50 (nM), inhibition of T-cell activation, TNFα secretion, Donor 2 (Kv1.3): 0.2 nM

B2: BLV1H12 GGS3:3 Moka (antibody)
VH: QVQLRESGPSLVKPSQTLSLTCTASGFSLSDKAVGWVRQAPGKALEWLGSIDTGGNTGYNPGLKSRLSITKDNSKSQVSLSVSSVTTEDSATYYCTSVHQETKKYQSGGSGGSGGSGINVKCSLPQQCIKPCKDAGMRFGKCMNKKCRCYSGGSGGSGGSSYTYNYEWHVDVWGQGLLVTVSSAS
light: not shown
- EC50 (nM), inhibition of T-cell activation, IL-2 secretion, Donor 1 (Kv1.3): 14.4 nM
- EC50 (nM), inhibition of T-cell activation, IL-2 secretion, Donor 2 (Kv1.3): 40.2 nM
- EC50 (nM), inhibition of T-cell activation, TNFα secretion, Donor 1 (Kv1.3): 19.3 nM
- EC50 (nM), inhibition of T-cell activation, TNFα secretion, Donor 2 (Kv1.3): 38.2 nM

B3: VH4-34 MutE IL-8 5R6E31D32K50S (antibody, human IgG1)
VH: QVQLREWGAGLLKPSETLSLTCAVYGGSFSDKYWSWIRQPPGKGLEWIGSINHSGSTNYNPSLKSRVTISVDTSKNQFSLKLSSVTAADTAVYYCTSVHQETKKYQSPRSAKELRCQCIKTYSKPFHPKFIKELRVIESGPHCANTEIIVKLSDGRELCLDPKENWVQRVVEKFLKRAENSGSGSYTYNYEWHVDVWGQGLLVTVSS
light: QAVLNQPSSVSGSLGQKVTISCSGSSSNIGNNYVSWYQQLPGTAPRTLIYGDTKRPSGIPDRFSGSKSGTSATLGITGLQTGDEADYYCASAEDSSSNAVFGSGTTLTVLGQPKAAPSVTLFPPSSEELQANKATLVCLISDFYPGAVTVAWKADSSPVKAGVETTTPSKQSNNKYAASSYLSLTPEQWKSHRSYSCQVTHEGSTVEKTVAPTECS
- CXCR1 activation, luminescence, 0.1 nM IL-8 domains (CXCR1 [1]): 4060 luminescence
- CXCR1 activation, luminescence, 0.5 nM IL-8 domains (CXCR1 [1]): 5300 luminescence
- CXCR1 activation, luminescence, 2.2 nM IL-8 domains (CXCR1 [1]): 10300 luminescence
- CXCR1 activation, luminescence, 9.9 nM IL-8 domains (CXCR1 [1]): 17100 luminescence
- CXCR1 activation, luminescence, 44 nM IL-8 domains (CXCR1 [1]): 23300 luminescence
- CXCR1 activation, luminescence, 200 nM IL-8 domains (CXCR1 [1]): 22300 luminescence

B4: VH4-34 MutF IL-8 5R6E CD1cow (antibody, human IgG1)
VH: B3 VH with A23T, V24A, Y25S, G27F, F29L, Y33A, W34V, S35G, S50E
light: B3 light
- CXCR1 activation, luminescence, 0.1 nM IL-8 domains (CXCR1 [1]): 4180 luminescence
- CXCR1 activation, luminescence, 0.5 nM IL-8 domains (CXCR1 [1]): 6620 luminescence
- CXCR1 activation, luminescence, 2.2 nM IL-8 domains (CXCR1 [1]): 13500 luminescence
- CXCR1 activation, luminescence, 9.9 nM IL-8 domains (CXCR1 [1]): 21900 luminescence
- CXCR1 activation, luminescence, 44 nM IL-8 domains (CXCR1 [1]): 24000 luminescence
- CXCR1 activation, luminescence, 200 nM IL-8 domains (CXCR1 [1]): 25000 luminescence

B5: VH4-34+CDR3-IL8_CDR1-Cow_CDR2-Cow / VL1-51 S2A, T5N, P8S, A12G, A13S, P14L, K46R, L47T, D51G, N52D, N53T IgG (antibody)
VH: QVQLQQWGAGLLKPSETLSLTCTASGFSLSDKAVGWIRQPPGKGLEWLGSIDTGGNTGYNPSLKSRVTISVDTSKNQFSLKLSSVTAADTAVYYCTSVHQETKKYQSPRSAKELRCQCIKTYSKPFHPKFIKELRVIESGPHCANTEIIVKLSDGRELCLDPKENWVQRVVEKFLKRAENSGSGSYTYNYEWHVDVWGQGLLVTVSSAS
light: B3 light
notes: also called BID 39; VH4-34 MutD IL-8 CDR1cow CDR2cow
- Specific Binding (CXCR1-Cell median AFU / Parental Cell median AFU) (CXCR1 [2]): 13
- CXCR1 activation, luminescence at 0.4 nM IL-8 domains (CXCR1 [3]): 6310
- CXCR1 activation, luminescence at 1.6 nM IL-8 domains (CXCR1 [3]): 7400
- CXCR1 activation, luminescence at 6.25 nM IL-8 domains (CXCR1 [3]): 10200
- CXCR1 activation, luminescence at 25 nM IL-8 domains (CXCR1 [3]): 15400
- CXCR1 activation, luminescence at 100 nM IL-8 domains (CXCR1 [3]): 21600

B6: VH4-34+CDR3-IL8_CDR1-G31DY32K_CDR2-E50S / VL1-51 S2A, T5N, P8S, A12G, A13S, P14L, K46R, L47T, D51G, N52D, N53T IgG (antibody)
VH: QVQLQQWGAGLLKPSETLSLTCAVYGGSFSDKYWSWIRQPPGKGLEWIGSINHSGSTNYNPSLKSRVTISVDTSKNQFSLKLSSVTAADTAVYYCTSVHQETKKYQSPRSAKELRCQCIKTYSKPFHPKFIKELRVIESGPHCANTEIIVKLSDGRELCLDPKENWVQRVVEKFLKRAENSGSGSYTYNYEWHVDVWGQGLLVTVSSAS
light: B3 light
notes: also called BID 37; VH4-34 MutC IL-8 31D32K50S
- Specific Binding (CXCR1-Cell median AFU / Parental Cell median AFU) (CXCR1 [2]): 18
- CXCR1 activation, luminescence at 0.4 nM IL-8 domains (CXCR1 [3]): 5420
- CXCR1 activation, luminescence at 1.6 nM IL-8 domains (CXCR1 [3]): 5710
- CXCR1 activation, luminescence at 6.25 nM IL-8 domains (CXCR1 [3]): 7160
- CXCR1 activation, luminescence at 25 nM IL-8 domains (CXCR1 [3]): 11200
- CXCR1 activation, luminescence at 100 nM IL-8 domains (CXCR1 [3]): 15500

B7: VH4-34+CDR3-IL8_CDR2 E50S / VL1-51 S2A, T5N, P8S, A12G, A13S, P14L, K46R, L47T, D51G, N52D, N53T IgG (antibody)
VH: B6 VH with D31G, K32Y
light: B3 light
- Specific Binding (CXCR1-Cell median AFU / Parental Cell median AFU) (CXCR1 [2]): 5

B8: VH4-34+CDR3-IL8_CDR1-G31DY32K_CDR2-E50S_Q5RQ6E / VL1-51 S2A, T5N, P8S, A12G, A13S, P14L, K46R, L47T, D51G, N52D, N53T IgG (antibody)
VH: B3 VH
light: B3 light
notes: also called BID 38; VH4-34 MutE IL-8 5R6E31D32K50S
- CXCR1 activation, luminescence at 0.4 nM IL-8 domains (CXCR1 [3]): 6190
- CXCR1 activation, luminescence at 1.6 nM IL-8 domains (CXCR1 [3]): 8160
- CXCR1 activation, luminescence at 6.25 nM IL-8 domains (CXCR1 [3]): 13500
- CXCR1 activation, luminescence at 25 nM IL-8 domains (CXCR1 [3]): 21000
- CXCR1 activation, luminescence at 100 nM IL-8 domains (CXCR1 [3]): 25900
- Specific Binding (CXCR1-Cell median AFU / Parental Cell median AFU) (CXCR1 [4]): 4

B9: BLV1H12 IgG (antibody)
VH: QVQLRESGPSLVKPSQTLSLTCTASGFSLSDKAVGWVRQAPGKALEWLGSIDTGGNTGYNPGLKSRLSITKDNSKSQVSLSVSSVTTEDSATYYCTSVHQETKKYQSCPDGYRERSDCSNRPACGTSDCCRVSVFGNCLTTLPVSYSYTYNYEWHVDVWGQGLLVTVSS
light: not shown
notes: also called ULcowV
- FACS CXCR1/Parental Ratio (CXCR1 [5]): 1.9
- Ratio of CXCR1/Parental (CXCR1 [6]): 1.9
- median AFU on CXCR1-U2OS (CXCR1 [7]): 9 AFU

B10: VH1-24+CDR3-IL8 IgG (antibody)
VH: QVQLVQSGAEVKKPGASVKVSCKVSGYTLTELSMHWVRQAPGKGLEWMGGFDPEDGETIYAQKFQGRVTMTEDTSTDTAYMELSSLRSEDTAVYYCTSVHQETKKYQSPRSAKELRCQCIKTYSKPFHPKFIKELRVIESGPHCANTEIIVKLSDGRELCLDPKENWVQRVVEKFLKRAENSGSGSYTYNYEWHVDVWGQGLLVTVSSAS
light: not shown
notes: also called VH1-24 BLVCDR3IL8
- median AFU on CXCR1-U2OS (CXCR1 [7]): 23 AFU

B11: VH1-46+CDR3-IL8 IgG (antibody)
VH: QVQLVQSGAEVKKPGASVKVSCKASGYTFTSYYMHWVRQAPGQGLEWMGIINPSGGSTSYAQKFQGRVTMTRDTSTSTVYMELSSLRSEDTAVYYCTSVHQETKKYQSPRSAKELRCQCIKTYSKPFHPKFIKELRVIESGPHCANTEIIVKLSDGRELCLDPKENWVQRVVEKFLKRAENSGSGSYTYNYEWHVDVWGQGLLVTVSSAS
light: not shown
notes: also called VH1-46 BLVCDR3IL8
- median AFU on CXCR1-U2OS (CXCR1 [7]): 6 AFU

B12: VH4-34+CDR3-IL8_CDR2 E50S / VL1-51 S2A, T5N, P8S, A12G, A13S, P14L IgG (antibody)
VH: B6 VH with D31G, K32Y
light: B3 light with R46K, T47L, G51D, D52N, T53N
- Specific Binding (CXCR1-Cell median AFU / Parental Cell median AFU) (CXCR1 [2]): 4

B13: VH4-34+CDR3-IL8_CDR2 Cow / VL1-51 S2A, T5N, P8S, A12G, A13S, P14L, D51G, N52D, N53T IgG (antibody)
VH: B6 VH with D31G, K32Y, I48L, N52D, H53T, S54G, S56N, N58G
light: B3 light with R46K, T47L
notes: nt HC 433, LC 444
- Specific Binding (CXCR1-Cell median AFU / Parental Cell median AFU) (CXCR1 [2]): 4

B14: VH4-34+CDR3-IL8 / VL1-51 S2A, T5N, P8S, A12G, A13S, P14L, K46R, L47T, D51G, N52D, N53T IgG (antibody)
VH: B6 VH with D31G, K32Y, S50E
light: B3 light
notes: nt HC 430, LC 486
- Specific Binding (CXCR1-Cell median AFU / Parental Cell median AFU) (CXCR1 [2]): 12

B15: VH4-34+CDR3-IL8_CDR2 Cow / VL1-51 S2A, T5N, P8S, A12G, A13S, P14L, K46R, L47T, D51G, N52D, N53T IgG (antibody)
VH: B6 VH with D31G, K32Y, I48L, N52D, H53T, S54G, S56N, N58G
light: B3 light
notes: nt HC 433, LC 486
- Specific Binding (CXCR1-Cell median AFU / Parental Cell median AFU) (CXCR1 [2]): 3
